Experimental data from US20260028391A1 (HUMABS BIOMED, published 2026).

B1: MPH12 VH-FRGL / MPH12 VL-FRGL (antibody, V domains shown)
VH: QVQLVESGGGLVKPGGSLRLSCAASGFTFSGFYMKWIRQAPGKGLEWVSSISASGSYTNYADSVEGRFTISRDNAKNSLYLQMNSLRAEDTAVYYCARGDSYCGASACHGEFFHKWGQGTLVTVSS
VL: QSVLTQPPSVSGAPGQRVTISCTGSDSNIGADFDVHWYQQLPGTAPKLLIYGNINRPSGVPDRFSGSKSGTSASLAITGLQAEDEADYYCQSYDRSLHYVFGTGTKVTVL
notes: MPH12 variant; VH and VL only
B2: MPH12 VH-FRGL / MPH12 VL-S26A (antibody, V domains shown)
VH: QVQLVESGGGLVKPGGSLRLSCAASGFTFSGFYMKWIRQAPGKGLEWVSSISASGSYTNYADSVEGRFTISRDNAKNSLYLQMNSLRAEDTAVYYCARGDSYCGASACHGEFFHKWGQGTLVTVSS
VL: QSVLTQPPSVSGAPGQRVTISCTGSDANIGADFDVHWYQQLPGTAPKLLIYGNINRPSGVPDRFSGSRSGTSAFLAITRLQAEDEADYYCQSYDRSLHYVFGAGTKVTVL
notes: MPH12 variant; VH and VL only
B3: MPH12 VH-FRGL / MPH12 VL-D25S (antibody, V domains shown)
VH: QVQLVESGGGLVKPGGSLRLSCAASGFTFSGFYMKWIRQAPGKGLEWVSSISASGSYTNYADSVEGRFTISRDNAKNSLYLQMNSLRAEDTAVYYCARGDSYCGASACHGEFFHKWGQGTLVTVSS
VL: QSVLTQPPSVSGAPGQRVTISCTGSSSNIGADFDVHWYQQLPGTAPKLLIYGNINRPSGVPDRFSGSRSGTSAFLAITRLQAEDEADYYCQSYDRSLHYVFGAGTKVTVL
notes: MPH12 variant; VH and VL only
B4: MPH12 VH-D62E / MPH12 VL-FRGL (antibody, V domains shown)
VH: QVQLVESGGGLVKPGGSLRLSCVASGFTFSGFYMKWIRQAPGKGLEWVSSISASGSYTNYAESVEGRFTVSRDNAKNSLFLLMSSLRAEDTAVYYCARGDSYCGASACHGEFFHKWGQGTLVTVSS
VL: QSVLTQPPSVSGAPGQRVTISCTGSDSNIGADFDVHWYQQLPGTAPKLLIYGNINRPSGVPDRFSGSKSGTSASLAITGLQAEDEADYYCQSYDRSLHYVFGTGTKVTVL
notes: MPH12 variant; VH and VL only
B5: MPH12 VH-FRGL / MPH12 VL (antibody, V domains shown)
VH: QVQLVESGGGLVKPGGSLRLSCAASGFTFSGFYMKWIRQAPGKGLEWVSSISASGSYTNYADSVEGRFTISRDNAKNSLYLQMNSLRAEDTAVYYCARGDSYCGASACHGEFFHKWGQGTLVTVSS
VL: QSVLTQPPSVSGAPGQRVTISCTGSDSNIGADFDVHWYQQLPGTAPKLLIYGNINRPSGVPDRFSGSRSGTSAFLAITRLQAEDEADYYCQSYDRSLHYVFGAGTKVTVL
notes: MPH12 variant; VH and VL only
B6: MPH12 VH-D62E / MPH12 VL-D25S (antibody, V domains shown)
VH: QVQLVESGGGLVKPGGSLRLSCVASGFTFSGFYMKWIRQAPGKGLEWVSSISASGSYTNYAESVEGRFTVSRDNAKNSLFLLMSSLRAEDTAVYYCARGDSYCGASACHGEFFHKWGQGTLVTVSS
VL: QSVLTQPPSVSGAPGQRVTISCTGSSSNIGADFDVHWYQQLPGTAPKLLIYGNINRPSGVPDRFSGSRSGTSAFLAITRLQAEDEADYYCQSYDRSLHYVFGAGTKVTVL
notes: MPH12 variant; VH and VL only
B7: MPH12 VH-FRGL / MPH12 VL-D25E (antibody, V domains shown)
VH: QVQLVESGGGLVKPGGSLRLSCAASGFTFSGFYMKWIRQAPGKGLEWVSSISASGSYTNYADSVEGRFTISRDNAKNSLYLQMNSLRAEDTAVYYCARGDSYCGASACHGEFFHKWGQGTLVTVSS
VL: QSVLTQPPSVSGAPGQRVTISCTGSESNIGADFDVHWYQQLPGTAPKLLIYGNINRPSGVPDRFSGSRSGTSAFLAITRLQAEDEADYYCQSYDRSLHYVFGAGTKVTVL
notes: MPH12 variant; VH and VL only
B8: MPK158 (antibody, V domains shown)
VH: EVQLVESGGGLVKPGGSLRLSCAASGFSISGFYMIWIRQAPGKGLEWISDISASSSYIDYADSVKGRFTISRDNGQNTVHLLMNNLRADDTGVYYCAREQTPSPGPFDLWGQGTLVTVST
VL: QPVLTQPPSVSGAPGQRVTISCTGRSSNIGAGYDVHWYQHLPGTSPKLLIYRNSNRPSGVPDRFSGSTSGTSASLAITGLQADDEADYYCQAYDRILGGWAFGGGTKLTVL
notes: VH and VL only
B9: MPK149 (antibody, V domains shown)
VH: QVQLVESGGGLVKPGGSLRLSCEASGFTISGYFMIWIRQAPGKGLEWISSISGSSTYTDYAESVKGRFTISRDNGRSTLYLQMNSLRVEDTAVYYCATEQTPSPGPFDLWGQGTLVTVSS
VL: QSVVTQPPSVSGAPGQRVTISCTGTSSNIGAGYDVHWYQQFPGTSPRLLINRNTNRPSGVPDRFSGSQSGSSASLAIAGLQAEDEADYYCQSYDRSVSGWVFGGGTKLTVL
notes: VH and VL only
B10: MPK153 (antibody, V domains shown)
VH: EVHLVESGGGLVKPGGSLRLSCAASGFTFTGYFMIWIRQAPGKGLEWISYISSSSNYINYADSVKGRFTISRDNGQNTLYLQMNSLRPDDTAVYYCATEQVPSPGPFDLWGQGTLVTVSS
VL: QSVLTQPPSVSGAPGQRVIISCTGTSSNIGAGYDVHWYQQFPGASPKLLIFRNTDRPSGVPDRFSGSKSGSSASLAIAGLQAEDEADYYCQSYDRSLDGWVFGGGTKVTVL
notes: VH and VL only
B11: MPK152 (antibody, V domains shown)
VH: EVQLVESGGGLVKPGGSLRLSCAASGLTISGYYMIWIRQAPGKGLEWISYISGSSSYTNYADSVKGRFTISRDNGQNTLFLQMDSLRVEDTAVYFCATEETPSPGPFGLWGQGTLVTVSS
VL: QSVVTQPPSVSGAPGQRVTISCTGTSSNIGAGYDVHWYQQFPGTSPKLLIFRNTNRPSGVPDRFSGSTSGSSASLAITGLQTEDEADYYCQSYDRSLDGWVFGGGTELTVL
notes: VH and VL only
B12: MPK150-v2 (antibody, V domains shown)
VH: EVQLVESGGGLVKPGGSLRLSCEASGISLSGYYMIWIRQAPGKGLEWISSISGSSTYIDYADSVRGRFTISRHNGQNTIYLQMNSLRVEDTAVYFCATEQTPSPGPFELWGRGILVTVSS
VL: QSVLTQPPSVSGAPGQRVTIFCTGTSSNIGTGYDVHWYQQFPGTSPKLLIFRNSNRPSGVPDRFSGSKSGSSASLAIAGLQAEDEADYYCQSYDRGVNGWVFGGGTKLTVL
notes: VH and VL only
B13: MPK157 (antibody, V domains shown)
VH: EVQLVESGGGLVKPGGSLRLSCSASGFTLSGYNMNWVRQAPGKGLEWISYISASSSYINYADSVKGRFTISRDNGRSSLYLQMNSLRAEDTAVYFCTTQAELPGWFDPWGQGTLVTVSS
VL: QSVLTQPPSMSGAPGQRVTISCTGSSSNIGAGYDVNWYRQLPGTAPQLLIYRNTNRPSGVPDRFSGSNSGTSASLAITGLQADDEAHYYCQSYDRSLSGWVFGGGTKLTVL
notes: VH and VL only
B14: MPK162 (antibody, V domains shown)
VH: EVQLVESGGGLVKPGDSLRLSCAASGFSLSSYYMFWIRQAPGKGLEWVSDISGGSTFTNYADSVKGRFTISRDNAKKVLYLQMNSLRVDDSAVYYCVRGSSISPNWFESWGQGALVTVSS
VL: QSVLTQPPSVSGAPGQRVTISCTGTSSNIGAGYDVHWYQQVPGTAPKLLIYGNSNRPSGVPDRFSGSKSGTAASLAINGLQTEDEAEYYCQSYDRSLTGSYVFGSGTRVFVR
notes: VH and VL only
B15: MPK146 (antibody, V domains shown)
VH: QVQLVESGGGLVKPGGSLRLSCAASGFTFSGYYMIWIRQAPGKGLEWIASISGSSNYIDYADSVRGRFTISRDNARNILDLQMNSLRAGDTALYYCATEQVPSPGPFDLWGQGTLVTVSS
VL: QSVLTQPPSVSGAPGQRVTISCTGSNSNLGAGYDVHWYQQFPGTSPKLLIYRNTNRPSGVPDRFAGSKSGTSASLAITGLQAEDEADYYCQSYDRSLSGWVFGGGTKLTVL
notes: VH and VL only
B16: MPK155 (antibody, V domains shown)
VH: EVQLVESGGGLVKPGGSLRLSCEASGISLSGYYMIWIRQAPGKGLEWISSISSSSNYIDYADSVRGRFTISRHNGQNTLYLQMNSLRVEDTAVYFCATEQTPSPGPFDLWGQGILVTVSS
VL: QSVLTQPPSVSGAPGQRVTIFCTGTSSNLGAGYDVHWYQQFPGTSPKLLIYRYTNRPSGVPDRFSGSKSGSSASLAIAGLQAEDEADYYCQSYDRSVSGWVFGGGTKLTVL
notes: VH and VL only
B17: MPK151 (antibody, V domains shown)
VH: EVQLVESGGGLVKPGGSLRLSCAASGLTISGYYMIWIRQAPGKGLEWISDISASSTYTDYAESVKGRFSISRDNGQNTVYLQMNSLRAEDTAVYYCATEQTPSPGPFDLWGQGTLVTVSS
VL: QSVLTQPPSVSGAPGQKITISCTGGSSNFGAGYDVHWYQQFPGTSPKLLIYRNTFRPSGVPDRFSGSKSGTSASLAITGLQAEDEADYYCQSYDRSLSGWVFGGGTKLTVL
notes: VH and VL only
B18: MPK204 (antibody, V domains shown)
VH: QVQLVESGGGLVKPGGSLRLSCEASGLSLSGYYMIWIRQAPGKGLEWISSISSSSNYIDYADSVKGRFTISRHNGQNTLYLQMNSLRVEDTAVYYCATEQTPSPGPFDLWGQGTLVTVSS
VL: QSVLTQPPSVSGAPGQRVTISCTGTSSNIGTGYDVHWYQQFPGTSPKLLIYRNTNRPSGVPDRFSGSKSGSSASLAIAGLQAEDEADYYCQSYDRSVSGWVFGGGTKLTVL
notes: VH and VL only
B19: MPK145 (antibody, V domains shown)
VH: EVQLVESGGGLVEPGGSLRLSCAASGFTISGYGMSWVRQAPGKGLEWVSSISASSSYIYYGDAMKGRITISRDNGWNSMYLQMNSLRTEDTAVYYCATAPIEPPYFDLWGRGTLVTVSS
VL: QSVVTQPPSVSGAPGQRVTISCTGSSSNIGAGYDVHWYQQFPGKAPKVLIYGNNNRPSGVPDRFAASNSGASASLAITGLQAEDEAAYFCQSYDRRLSGPVFGGGTKLTVL
notes: VH and VL only
B20: MPK174-v2 (antibody, V domains shown)
VH: EVQLVESGGGLVKPGGSLRLSCAASRFKFGDYYMSWIRQAPGKGLEWVSNISPSSSYTNYADSVKGRFTISRDNAKNLLYLQMNSLRAEDTAVYYCARESCSGGSCSLHGMDVWGQGTTVTVAS
VL: QSVLTQPPSVSGAPGQRVTISCTGSSSNIGAGYDVHWYQQLPGTAPKLLIYDNSNRPSGVPDRFSGSKSGTSASLAITGLRAEDDADYYCQSYDRSLGGSIFGGGTKLTVL
notes: VH and VL only
B21: MPK196 (antibody, V domains shown)
VH: QVQLVESGGGLVKPGGSLRLSCAASRFKFGDYYMSWIRQAPGKGLEWVSNISPSSSYTNYADSVKGRFTISRDNANNLLYLQMNSLRAEDTAVYYCARESCSGGSCSLHGMDVWGQGTTVTVAS
VL: QSVLTQPPSVSGAPGQRVTISCTGSSSNIGAGYDVHWYQQLPGTAPKLLIYDNSNRPSGVPDRFSGSKSGTSASLAITGLRAEDDADYYCQSYDRSLGGSIFGGGTKLTVL
notes: VH and VL only

Each binder was assayed against T1, DS-Cav1 RSV F (respiratory syncytial virus) (assay: ELISA on DS-Cav1 RSV F).
T1 construct: also called DC-VCav1
In the case of B1, the EC50 is reported as 0.0305 µg/mL. Work on B2 yielded an EC50 of 0.0397 µg/mL. Binder B3 has an EC50 of 0.0219 µg/mL. Binder B4 has an EC50 of 0.0267 µg/mL. B5 showed an EC50 of 0.0328 µg/mL. B6 was tested, and the EC50 was 0.0236 µg/mL. For B7, the EC50 was 0.034 µg/mL.

Each binder was assayed against RSV fusion glycoprotein (RSV-F) (respiratory syncytial virus) (assay: SPR; F protein loaded on streptavidin sensors, mAb in solution).
Experimental: Binding affinity of mAbs for RSV-F protein, MPV-F D280 protein, and MPV-F N280 F variant protein was assessed using surface plasmon resonance (SPR).
For B8, the Kd was 1 pM. Work on B9 yielded a Kd of 1 pM. B10 was tested, and the Kd was 460 pM. Binder B11 has a Kd of 1 pM. Binder B12 has a Kd of 1 pM. B13 gave a Kd of 1 pM. In the case of B14, the Kd is reported as 100000 pM. For B15, the Kd was 9.5 pM. B16 gave a Kd of 6.3 pM. Binder B17 has a Kd of 80 pM. Binder B18 has a Kd of 290 pM. In the case of B19, the Kd is reported as 1 pM. Binder B20 has a Kd of 1 pM. B21 gave a Kd of 1 pM.
